Legend:
[1] = molecular target: T1, RPA-eGFP heterotrimer (human, UniProt P27694;P15927;P35244 1-616;1-270;1-121); assay: single-molecule photobleaching; two steps predominant; EMSA: 50 mM Tris-HCl pH 7.5, 50 mM NaCl, 1 mM DTT, 0.01% Tween-20, 23°C, 10 nM labeled DNA; NSMF-DNA gels 1.5% agarose in 1xTBE at 4°C; conditions: protein: recombinant; tags: 6xHis; eGFP at C-term of RPA70; copies: 1;1;1; label: 5' biotin
[2] = molecular target: T2, pmRPA-S33D (human, UniProt P27694;P15927;P35244 1-616;1-270;1-121, S33D;RPA32); assay: EMSA; two shifted bands; EMSA: 50 mM Tris-HCl pH 7.5, 50 mM NaCl, 1 mM DTT, 0.01% Tween-20, 23°C, 10 nM labeled DNA; NSMF-DNA gels 1.5% agarose in 1xTBE at 4°C; conditions: protein: recombinant; tags: 7xHis; copies: 1;1;1; label: 5' Cy5
[3] = molecular target: T3, RPA heterotrimer WT (RPA70/RPA32/RPA14) (human, UniProt P27694;P15927;P35244 1-616;1-270;1-121); assay: EMSA; three shifted bands; EMSA: 50 mM Tris-HCl pH 7.5, 50 mM NaCl, 1 mM DTT, 0.01% Tween-20, 23°C, 10 nM labeled DNA; NSMF-DNA gels 1.5% agarose in 1xTBE at 4°C; conditions: protein: recombinant; tags: untagged; 7xHis version also made; copies: 1;1;1; label: 5' Cy5
[4] = molecular target: T1, RPA-eGFP heterotrimer; assay: single-molecule photobleaching; three steps predominant; EMSA: 50 mM Tris-HCl pH 7.5, 50 mM NaCl, 1 mM DTT, 0.01% Tween-20, 23°C, 10 nM labeled DNA; NSMF-DNA gels 1.5% agarose in 1xTBE at 4°C; conditions: protein: recombinant; tags: 6xHis; eGFP at C-term of RPA70; copies: 1;1;1; label: 5' biotin
[5] = molecular target: T2, pmRPA-S33D; assay: EMSA; one shifted band; EMSA: 50 mM Tris-HCl pH 7.5, 50 mM NaCl, 1 mM DTT, 0.01% Tween-20, 23°C, 10 nM labeled DNA; NSMF-DNA gels 1.5% agarose in 1xTBE at 4°C; conditions: protein: recombinant; tags: 7xHis; copies: 1;1;1; label: 5' Cy5
[6] = molecular target: DBM-RPA (human, UniProt P27694;P15927;P35244 1-616;1-270;1-121, W107A;F135A;RPA32); assay: EMSA; 25 nM; single molecule bound; EMSA: 50 mM Tris-HCl pH 7.5, 50 mM NaCl, 1 mM DTT, 0.01% Tween-20, 23°C, 10 nM labeled DNA; NSMF-DNA gels 1.5% agarose in 1xTBE at 4°C; conditions: protein: recombinant; copies: 1;1;1; label: 5' Cy5
[7] = molecular target: T3, RPA heterotrimer WT (RPA70/RPA32/RPA14); assay: EMSA; two shifted bands up to 150 nM RPA; EMSA: 50 mM Tris-HCl pH 7.5, 50 mM NaCl, 1 mM DTT, 0.01% Tween-20, 23°C, 10 nM labeled DNA; NSMF-DNA gels 1.5% agarose in 1xTBE at 4°C; conditions: protein: recombinant; tags: untagged; 7xHis version also made; copies: 1;1;1; label: 5' Cy5
[8] = molecular target: T1, RPA-eGFP heterotrimer; assay: single-molecule fluorescence; EMSA: 50 mM Tris-HCl pH 7.5, 50 mM NaCl, 1 mM DTT, 0.01% Tween-20, 23°C, 10 nM labeled DNA; NSMF-DNA gels 1.5% agarose in 1xTBE at 4°C; conditions: protein: recombinant; tags: 6xHis; eGFP at C-term of RPA70; copies: 1;1;1; label: 5' biotin
[9] = molecular target: T4, NSMF WT (UniProt Q6X4W1 1-530); assay: EMSA; low affinity; EMSA: 50 mM Tris-HCl pH 7.5, 50 mM NaCl, 1 mM DTT, 0.01% Tween-20, 23°C, 10 nM labeled DNA; NSMF-DNA gels 1.5% agarose in 1xTBE at 4°C; conditions: protein: recombinant, tags: N-term 3xFLAG, C-term 10xHis (MBP cleaved)
T4 sequence: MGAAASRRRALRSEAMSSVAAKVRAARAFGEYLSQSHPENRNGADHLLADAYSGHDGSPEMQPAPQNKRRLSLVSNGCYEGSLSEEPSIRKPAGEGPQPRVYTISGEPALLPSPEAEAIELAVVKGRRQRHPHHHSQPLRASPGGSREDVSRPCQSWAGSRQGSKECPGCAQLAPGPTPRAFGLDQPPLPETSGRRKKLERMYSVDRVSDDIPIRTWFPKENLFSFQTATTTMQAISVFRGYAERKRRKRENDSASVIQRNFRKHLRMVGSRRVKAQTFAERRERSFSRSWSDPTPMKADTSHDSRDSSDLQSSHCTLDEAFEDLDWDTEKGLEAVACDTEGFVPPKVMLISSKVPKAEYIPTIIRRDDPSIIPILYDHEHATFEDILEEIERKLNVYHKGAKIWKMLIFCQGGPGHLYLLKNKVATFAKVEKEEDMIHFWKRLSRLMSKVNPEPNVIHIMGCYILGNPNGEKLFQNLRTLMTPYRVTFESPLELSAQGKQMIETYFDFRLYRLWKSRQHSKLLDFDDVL

[10] = molecular target: T4, NSMF WT; assay: EMSA; up to 3000 nM NSMF; EMSA: 50 mM Tris-HCl pH 7.5, 50 mM NaCl, 1 mM DTT, 0.01% Tween-20, 23°C, 10 nM labeled DNA; NSMF-DNA gels 1.5% agarose in 1xTBE at 4°C; conditions: protein: recombinant; tags: N-term 3xFLAG, C-term 10xHis (MBP cleaved); label: Cy3 on Oligo1, Cy5 on RNA oligo; bubble 1:2, RNA strand 3 paired to strand 2 in bubble
[11] = molecular target: T3, RPA heterotrimer WT (RPA70/RPA32/RPA14); assay: EMSA; single shifted band; EMSA: 50 mM Tris-HCl pH 7.5, 50 mM NaCl, 1 mM DTT, 0.01% Tween-20, 23°C, 10 nM labeled DNA; NSMF-DNA gels 1.5% agarose in 1xTBE at 4°C; conditions: protein: recombinant; tags: untagged; 7xHis version also made; copies: 1;1;1; label: 5' Cy5

T3 sequence (P27694 whole entry, chain 1 of 3): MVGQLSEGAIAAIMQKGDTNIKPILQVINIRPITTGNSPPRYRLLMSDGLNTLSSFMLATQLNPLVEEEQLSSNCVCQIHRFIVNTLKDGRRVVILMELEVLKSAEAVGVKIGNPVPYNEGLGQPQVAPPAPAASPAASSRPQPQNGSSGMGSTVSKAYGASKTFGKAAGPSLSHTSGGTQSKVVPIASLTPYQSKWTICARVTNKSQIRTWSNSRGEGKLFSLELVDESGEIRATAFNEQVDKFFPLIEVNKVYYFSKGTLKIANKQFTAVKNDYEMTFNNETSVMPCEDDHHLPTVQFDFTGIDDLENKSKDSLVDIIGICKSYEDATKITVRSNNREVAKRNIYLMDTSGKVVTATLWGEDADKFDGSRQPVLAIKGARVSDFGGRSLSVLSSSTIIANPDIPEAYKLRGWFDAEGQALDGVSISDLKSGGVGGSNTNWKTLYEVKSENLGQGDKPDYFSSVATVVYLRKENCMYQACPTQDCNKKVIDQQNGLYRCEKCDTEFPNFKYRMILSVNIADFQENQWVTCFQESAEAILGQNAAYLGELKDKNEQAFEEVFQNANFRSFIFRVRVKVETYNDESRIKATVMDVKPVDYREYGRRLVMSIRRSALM
T3 sequence (P15927 whole entry, chain 2 of 3): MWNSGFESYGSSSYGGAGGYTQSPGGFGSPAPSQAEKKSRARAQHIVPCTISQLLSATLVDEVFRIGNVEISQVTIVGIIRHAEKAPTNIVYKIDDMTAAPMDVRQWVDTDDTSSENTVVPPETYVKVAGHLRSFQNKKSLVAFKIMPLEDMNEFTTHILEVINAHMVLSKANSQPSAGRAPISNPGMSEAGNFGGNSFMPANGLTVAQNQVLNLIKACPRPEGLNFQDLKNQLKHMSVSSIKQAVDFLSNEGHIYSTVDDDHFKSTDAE
T3 sequence (P35244 whole entry, chain 3 of 3): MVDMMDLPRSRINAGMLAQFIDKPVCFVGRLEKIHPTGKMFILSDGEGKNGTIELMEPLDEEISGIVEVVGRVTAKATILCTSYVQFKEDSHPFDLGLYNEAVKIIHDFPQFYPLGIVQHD
T1 sequence (P27694 whole entry, chain 1 of 3): as the sequence (P27694 whole entry, chain 1 of 3) above
T1 sequence (P15927 whole entry, chain 2 of 3): as the sequence (P15927 whole entry, chain 2 of 3) above
T1 sequence (P35244 whole entry, chain 3 of 3): as the sequence (P35244 whole entry, chain 3 of 3) above
T2 sequence (P27694 whole entry, stated change not applied, chain 1 of 3): as the sequence (P27694 whole entry, chain 1 of 3) above
T2 sequence (P15927 whole entry S33D, chain 2 of 3): as the sequence (P15927 whole entry, chain 2 of 3) above, with S33D counted along it
T2 sequence (P35244 whole entry, stated change not applied, chain 3 of 3): as the sequence (P35244 whole entry, chain 3 of 3) above
Sequence of DBM-RPA (P27694 whole entry, stated change not applied, chain 1 of 3): as the sequence (P27694 whole entry, chain 1 of 3) above
Sequence of DBM-RPA (P15927 whole entry W107A/F135A, chain 2 of 3): as the sequence (P15927 whole entry, chain 2 of 3) above, with W107A, F135A counted along it
Sequence of DBM-RPA (P35244 whole entry, stated change not applied, chain 3 of 3): as the sequence (P35244 whole entry, chain 3 of 3) above

## TTTTTTTTTTTTTTTTTTTTTTTTTTTTTT (ssDNA) [Biotinylated 30-nt ssDNA]
[1]
  binding result: binds

B1: 60-nt ssDNA (ssDNA)
DNA: TATTCATTGTTTTACCTATTGTACCTTATTCTTAATTCATTTTACTAATCATTTACGAGT
[2]
  binding result: binds
[3]
  binding result: binds

B2: Biotinylated 60-nt ssDNA (ssDNA)
DNA: TATTCATTGTTTTACCTATTGTACCTTATTCTTAATTCATTTTACTAATCATTTACGAGT
[4]
  binding result: binds

## TTTTTTTTTTTTTTTTTTTTTTTTTTTTTT (ssDNA) [30-nt ssDNA (dT30)]
[5]
  binding result: binds
[6]
  binding result: binds
[7]
  binding result: binds

## TTTTTTTTTTTTTT (ssDNA) [Biotinylated 14-nt ssDNA]
[8]
  binding result: binds

B3: PTJ (primer-template junction) (mixed)
DNA 1: TGGCGACGGCAGCGAGGCAGGTCAGGAATTCTGATC
DNA 2: GATCAGAATTCCTGACCT
[9]; 18 bp duplex, 5' overhang 18 nt on strand 1
  binding result: binds

B4: Fork (Y-shape) (mixed)
DNA 1: GCCAGGGACGAGGTGAACCTGCAGGTGGGCGGCTACTACTTTTTTTTTTTTTTTTTTTTTTTTTTTTTTTTTTTTTTTT
DNA 2: TTTTTTTTTTTTTTTTTTTTTTTTTTTTTTTTTTTTTTTAGTAGTAGCCGCCCACCTGCAGGTTCACCTCGTCCCTGGC
[9]; label: 5' Cy5 on strand 1, fork 1:2, two poly-dT arms
  binding result: binds

B5: R-loop (mixed)
DNA 1: GCCAGGGACGAGGTGAACCTGCAGGTGGGCGGCTACTACTTAGATGTCATCCGAGGCTTATTGGTAGAATTCGGCAGCGTCATGCGACGGC
DNA 2: GCCGTCGCATGACGCTGCCGAATTCTACCACGCGATTCATACCTGTCGTGCCAGCTGCTTTGCCCACCTGCAGGTTCACCTCGTCCCTGGC
RNA: GCAGCUGGCACGACAGGUAUGAAUC
[10]
  binding result: no binding

## TTTTTTTTTTTTTT (ssDNA) [14-nt ssDNA (dT14)]
[11]
  binding result: binds

From article PMC10450186
